Where no end group is shown, it is not given here.
Experiments:
HPV11 E1/E2 interaction = biological target: T1, HPV11 E1/E2 interaction (Human papillomavirus 11, UniProt P04014); test: In vitro HPV E1-E2 binding assay, HPV11 E1 and HPV11 E2
T1 construct: made in house; host or cells: Hi-Five insect cells infected with recombinant baculoviruses (gift from Louise Chow); nuclear extracts
T1 sequence (P04014 whole entry, looked up): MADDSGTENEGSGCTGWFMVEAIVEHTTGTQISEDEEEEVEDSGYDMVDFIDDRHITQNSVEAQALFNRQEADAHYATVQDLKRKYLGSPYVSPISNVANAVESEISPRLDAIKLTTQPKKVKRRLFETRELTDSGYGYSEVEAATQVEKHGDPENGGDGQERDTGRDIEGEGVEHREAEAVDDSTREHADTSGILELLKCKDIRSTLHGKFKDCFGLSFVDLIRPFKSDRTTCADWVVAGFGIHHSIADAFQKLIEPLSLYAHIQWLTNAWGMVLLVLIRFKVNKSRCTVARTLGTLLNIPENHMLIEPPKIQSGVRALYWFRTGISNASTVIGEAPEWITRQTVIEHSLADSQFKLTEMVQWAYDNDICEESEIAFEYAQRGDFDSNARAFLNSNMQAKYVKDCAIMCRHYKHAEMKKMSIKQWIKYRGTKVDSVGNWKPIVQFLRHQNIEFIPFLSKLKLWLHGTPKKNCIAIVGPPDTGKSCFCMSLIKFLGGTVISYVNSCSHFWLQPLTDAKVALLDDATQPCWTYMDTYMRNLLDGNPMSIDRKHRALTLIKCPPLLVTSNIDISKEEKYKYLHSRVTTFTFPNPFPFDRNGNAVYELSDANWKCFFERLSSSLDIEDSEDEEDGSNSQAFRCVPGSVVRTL
Method: In vitro HPV E1-E2 binding assay. 300-500 ng protein from HPV16 or HPV11 EE-E1 expressing recombinant baculovirus infected cell nuclear extracts and 80-120 ng from HPV E2 baculovirus infected cell nuclear extracts were incubated in 500 μl NET-gel buffer (50 mM Tris-HCl pH7.5, 150 mM NaCl, 0.1% NP-40, 1 mM EDTA, 0.25% gelatin) at 4° C. for one hour. 1-2 μg anti-EE monoclonal antibody was added and incubated with shaking at 4° C. for one hour. Immune complexes were precipitated with protein-G agarose beads and washed twice for 30 minutes with ice cold NET-gel buffer. Precipitated proteins were detected by Western blot using appropriate primary antibodies and anti-rabbit IgG HRP or anti-mouse IgG HRP (Amersham). Membranes were blocked for one hour in TNET (10 mM Tris 7.5, 2.5 mM EDTA, 50 mM NaCl, 0.1% Tween-20) containing 4% (w/v) dry milk. Washes and antibody reactions were carried out in TNET, and proteins were visualized by chemiluminescence (Reneaissance ECL, NEN) and autoradiography. Bands were quantitated using the NIH image program.
Very little is known about the physical properties of domains within the papillomavirus E1 and E2 proteins that are involved in intermolecular recognition and association. […] The effect of the E2N-WP15 peptide on these interactions was also assessed. […]

[1] = tested on: in vitro HPV16 DNA replication; test: In vitro replication of HPV16 DNA (293 cell extract, EE-E1, HPV16 E2); format: biochemical; conditions: 40 ng EE-E1 and 6 ng HPV16 E2, FIG. 7
Method: In vitro replication reactions. In vitro replication reactions were essentially as described by Kuo et al. (18) in 25 μl reactions at 37° C. for indicated times. Standard reactions were for 2 hours, and were terminated by addition of 200 μl stop solution (20 mM Tris-HCl pH 7.5, 10 mM EDTA, 0.1% SDS, and 20 μg/ml RNase A). After incubation at 37° C. for 15 minutes, proteinase K was added (200 μg/ml) and incubation was continued 30 minutes. Samples were extracted with 250 μl phenol/chloroform/isoamyl alcohol (25:24:1), ethanol precipitated, washed with 70% ethanol, dried, resuspended in 20-30μl TE, and analyzed on a 0.8% agarose gel (TAE). The agarose gel was dried onto Hybond N+ membrane (Amersham), and replicated DNA was visualized by autoradiography. Bands were quantitated by Phosphorimager analysis. Replication templates were pKS7838-7905 (nt7838-7905/1-130) containing the HPV16 replication origin, and pUC7874-99 containing the HPV11 origin of replication (nt7874-7933/1-99). pUC7874-99 was a generously provided by Dr. Louise Chow.
We sought to establish a system for the study of HPV16 DNA replication in vitro, and to determine whether specific interaction between HPV16 E1 and E2 was required for HPV16 DNA replication in this system. […] As has been documented for other papillomavirus E1 proteins, some replication was observed using relatively large amounts of E1 in the absence of E2 (lanes 2 through 7) (6, 16, 22, 33, 40, 48). […] Replication in this assay is ori-dependent, since the small amount of replication of the pKS plasmid lacking the HPV16 origin detected at high concentrations of EE-E1 (FIG. 3B, lanes 1-6) was not stimulated by E2 (FIG. 1B, lanes 7-12).
Since the E2N-WP23 and E2N-WP 15 peptides could inhibit interaction between […] E1 and E2, their ability to inhibit in vitro HPV16 DNA replication was also tested (FIGS. 7A and 7B).

WKHMRLACAIYYKAR [E2N-MP15]
inhibition of HPV11 E1/E2 interaction (HPV11 E1/E2 interaction): did not inhibit | inhibition of in vitro HPV16 DNA replication [1]: wild type peptides inhibited replication much more effectively than the respective E39A substituted analog
